# ± gives the uncertainty stated by the source.
# Assay: protein stability index of a GFP-peptide fusion (yeast GPS) (PSI 1-4); higher = more stable; sorted into four equal gates, so the index is relative within each strain
# Settings: doa10∆
# Summary of the method: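 Plasmids in a pooled yeast library fused tiled 17-residue yeast protein peptides downstream of GFP and also expressed Cherry. Mid-log cultures grown without leucine were sorted into four equal gates by GFP/Cherry fluorescence ratio. Each gate's plasmids were PCR-amplified and Illumina-sequenced, and reads were matched to strains by barcodes. The protein stability index is derived by multiplying each gate's read frequency by its gate number and summing the results.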
row,Sequence,protein stability index
1,ESLYDLIEFQPSQGVHY [MED6],2.84 ± 0.078
2,ESMLHLSIWIKNYPEYF [IRR1],2.17 ± 0.046
3,ESMSYLPDPILKNFLSY [MCD1],2.34 ± 0.13
4,ESNRQSVIVDSKVTVPP [ESC2],2.47 ± 0.11
5,ESSFIEIDDTEAEVTAE [BRR2],3.01 ± 0.068
6,ESSLTISLYFNDILDEL [ECM29],1.89 ± 0.06
7,ESSYTEVTKLLKNEGID [SMC4],3.1 ± 0.082
8,ESTAGSASTSATGISGS [ECM29],3.31 ± 0.046
9,ESTETGYVIKVFNNGIV [DIS3],2.34 ± 0.19
10,ESWANQLTVCGAIIGWT [FAS2],1.13 ± 0.041
11,ESWFKALAGSEINWRHA [FAS1],3.31 ± 0.11
12,ETASFIPTKESLTRDFE [YIL149C/MLP2],2.83 ± 0.068
13,ETDHANTENNDPDIPMT [IRR1],2.74 ± 0.09
14,ETDNEMNGNGKPGIPRG [SIR3],3.16 ± 0.099
15,ETELFEPGVLNTGDGSI [ECM29],3.25 ± 0.15
16,ETFISSMTATADVLAMA [RIP1],1.93 ± 0.11
17,ETGNFSWASEGISKKTR [RPS8A],3.15 ± 0.037
18,ETISNVAKTAPNSNKTH [SNF2],2.96 ± 0.055
19,ETKADGILLETISVPQI [RRP6],2.58 ± 0.076
20,ETKVDELRYQSHILNSH [DSN1],2.38 ± 0.067
21,ETLKRDRKQSQATNATN [ARP7],2.69 ± 0.074
22,ETNAKPFSFSSATSTTE [YLR335W/NUP2],2.18 ± 0.056
23,ETPSRLLLSPDQWYCID [ITC1],2.8 ± 0.062
24,ETQVEVEKNEIGKMYDE [NNF1],3.05 ± 0.19
25,EVAIRDVNLDVRIHSIQ [IRR1],2.4 ± 0.06

row,Sequence,protein stability index
1,EVDEKPTETYSDVGGLD [RPT5],3.35 ± 0.082
2,EVFQLRIFVKEILEKCA [GAL11],2.29 ± 0.12
3,EVGDVCINELDNWNAPL [RPO31],3.21 ± 0.086
4,EVRGQVPVIESAGFETD [SNU114],1.37 ± 0.052
5,EVRRAAMLNLINDNNTR [YCG1],3.32 ± 0.12
6,EVSCKLLETITYVLNTW [YML103C/NUP188],2.15 ± 0.068
7,EVVQTGAKNIEITVVKP [PRE6],3.24 ± 0.098
8,EWDLYPQGFSSVERGRK [REC8],3.41 ± 0.13
9,EWFEQNNSEQDQEIVIQ [ISW2],3.04 ± 0.13
10,EWNGKSFQKKSNDKVVE [ISW2],3.14 ± 0.054
11,EYADNDEDKFKKLKPIV [PRP28],2.82 ± 0.072
12,EYIIAAIRKAPHNSKSL [RPN3],2.79 ± 0.067
13,EYQVIGRRLPTESVPEP [RPL20A],3.08 ± 0.11
14,EYTINLHKRLHGVSFKK [RPL31A],2.24 ± 0.093
15,EYVYFFNNTSVIQDEVL [RPC40],2.41 ± 0.15
16,FAAAPNDTSSGTNAMLP [SNF5],3.13 ± 0.078
17,FAFWNLLVKFIKFFWNN [YLR018C/POM34],2.13 ± 0.23
18,FAGSNNQPHQSQTPSFN [YOR098C/NUP1],2.68 ± 0.046
19,FAKFIHHIHHFEKKELQ [IRR1],1.72 ± 0.048
20,FALPAGSPKSATSKTSE [CDC53],2.9 ± 0.17
21,FAVALKNEPDYSKAKYP [CDC53],2.88 ± 0.078
22,FDDRGDVKVIMATNKIE [RPT2],3.12 ± 0.12
23,FDDSSRIVNHKTKLWGF [LIN1],3.09 ± 0.071
24,FDERIKFANQLHDEYLV [RPN3],1.65 ± 0.092
25,FDKIIKIREDHINKIPS [SRB8],2.67 ± 0.12

row,Sequence,protein stability index
1,FDMTNHYNDSQQLRTWK [SRB8],2.99 ± 0.079
2,FDQAGKKVSRRNARAAR [RPL13B],3.08 ± 0.091
3,FDRLNGNDTISKFYNMK [SSN2],3.17 ± 0.1
4,FDSTAFNATVDETKGFD [MED2],3.25 ± 0.06
5,FDTSIKLDIISDPESER [RPN14],2.7 ± 0.061
6,FDVMIDEESLVKYMPEQ [RPO21],2.3 ± 0.15
7,FEDSMQFKKLTHAQRTG [PRP8],2.81 ± 0.086
8,FEHGRTPAEMSRPATTT [FAS2],2.72 ± 0.064
9,FEPASRLQGIKLLDNIQ [COR1],2.87 ± 0.064
10,FFAYFIGWCKEDPKRRA [YJL039C/NUP192],2.15 ± 0.15
11,FFMSERSSRLHIVYSLL [YML103C/NUP188],1.91 ± 0.06
12,FFPYYVHTIIAGLDEDG [PRE7],3.65 ± 0.15
13,FGAPNNPNSTAITADLG [YGL172W/NUP49],3.04 ± 0.094
14,FGEWAGMTKSNIYNFSP [BRR2],2.94 ± 0.083
15,FGGSQPNSGTATTGGFG [YGR119C/NUP57],2.98 ± 0.2
16,FGKLAFPTRLGQGYRKV [YJL039C/NUP192],2.98 ± 0.18
17,FGLGYGDVGKNHITEFP [RPC31],3.17 ± 0.11
18,FGRKKRKGGPATAEKLP [RPT2],3.56 ± 0.089
19,FGRKNDRQCMIMDELLS [DIB1],2.57 ± 0.047
20,FGWLLSDNSVSVRLQVT [IRR1],1.26 ± 0.078
21,FHKQQAHFWKPVLNLDK [RPL28],2.93 ± 0.067
22,FHVGFIAKIKKVCECVC [RPO21],1.15 ± 0.046
23,FIESIVVDFKNKENDNV [SNF12],2.55 ± 0.15
24,FIKLQKIDIIELQKSLS [FAS1],2.15 ± 0.045
25,FIMASVGKYDKAIELLE [SRP72],2.37 ± 0.12

row,Sequence,protein stability index
1,FIPHGLKRRQVIEQCYL [SRB8],2.78 ± 0.074
2,FIRLPHWPLNWYLILSI [RGR1],1.46 ± 0.077
3,FIRSTNSWFDVTWRTFT [FAS1],1.37 ± 0.12
4,FKFSGTVSSDVFKLNPS [YLR335W/NUP2],3 ± 0.29
5,FKPSQEPEFHALSQSSL [RRI1],2.61 ± 0.05
6,FKTYRNETIIDNFSPHQ [SMC3],1.97 ± 0.17
7,FKYLLGVTDLFRHFIGI [ISW2],2.17 ± 0.056
8,FLDSMAQKYASIVGVDL [FAS2],1.81 ± 0.051
9,FLDSVHKQGSSYVAVLG [POP7],2.6 ± 0.045
10,FLGALKYLPHAILKLLE [PRP8],2.12 ± 0.09
11,FLKLYVLVKWTRTIKQN [RGR1],1.41 ± 0.11
12,FLQDKVQIKDVNDRYQI [CSI1],3.28 ± 0.18
13,FLSKPSKALYPDYYMII [SNF2],2.31 ± 0.037
14,FLTGQFASNKKINDESS [YML103C/NUP188],2.23 ± 0.05
15,FLWPFKLSNPSGGWGVP [RPL7A],3.16 ± 0.077
16,FNEENGEDSTKPLGPCD [POP1],3.34 ± 0.14
17,FNELCDPESRTQSYNNQ [POP1],3.09 ± 0.14
18,FNLLILSLNKRIYDREP [YCG1],2.75 ± 0.11
19,FNPQDTEENIKGETNSE [RRP45],3.36 ± 0.26
20,FNQRDGEHEKSNILLNS [MED1],2.4 ± 0.087
21,FNRLKKQAHEKLDASKK [YIL149C/MLP2],2.95 ± 0.086
22,FNYGKLPLPPSVEWMKV [SIN4],2.6 ± 0.11
23,FPIALQWTGGRGGGHHS [FAS1],2.52 ± 0.18

# Reference: the supplement of paper PMC9732359
